Assay results taken from article PMC5979959.

Molecular target: human DNAJB6, cytosolic isoform B (human) (UniProt O75190)
Assay: native gel or EMSA + other: negative stain electron microscopy; DNAJB6 oligomers fractionated by GraFix (5-30% sucrose, 0-0.2% glutaraldehyde gradient, 20 mM NaPO4, 150 mM NaCl, pH 8.0, 4 °C); fraction 5 analysed by blue native-PAGE and negative stain EM with single particle reconstruction

Chain of human DNAJB6, cytosolic isoform B, O75190-2 1-241 (natural protein; other documents disagree on this pair) (O75190 other isoform, or with tags, fused parts or gaps): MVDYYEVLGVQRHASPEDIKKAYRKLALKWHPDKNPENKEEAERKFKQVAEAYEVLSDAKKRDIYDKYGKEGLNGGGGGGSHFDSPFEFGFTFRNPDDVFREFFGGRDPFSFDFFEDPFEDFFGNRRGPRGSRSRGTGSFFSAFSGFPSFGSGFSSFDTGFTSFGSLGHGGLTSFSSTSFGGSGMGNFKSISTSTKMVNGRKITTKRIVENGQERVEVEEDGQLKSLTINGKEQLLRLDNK

Substance: human DNAJB6, cytosolic isoform B, O75190-2 1-241 (natural protein; other documents disagree on this pair)
- stoichiometry N: 20 subunits
